Laboratory results reported in publication PMC3448645, “Functional Studies of ssDNA Binding Ability of MarR Family Protein TcaR from Staphylococcus epidermidis”.

Assays:
TcaR [1] = target: T1, TcaR (Staphylococcus epidermidis, UniProt Q5HLN6 1-151); assay: EMSA; similar to GC33; small and large complexes; EMSA: 20 mM Tris-HCl pH 8.0, 150 mM KCl, 0.1 mM MgCl2, 0.05 mM EDTA, 12.5% glycerol, 0.1 mM DTT, 1 mg/ml BSA, room temperature (30 C for viral ssDNA); SPR: 50 mM Tris, 150 mM NaCl, pH 7.5, 25 C; settings: protein: recombinant; chain copies: 2
TcaR [2] = target: T1, TcaR; assay: EMSA; no significant interaction; 1 uM DNA; EMSA: 20 mM Tris-HCl pH 8.0, 150 mM KCl, 0.1 mM MgCl2, 0.05 mM EDTA, 12.5% glycerol, 0.1 mM DTT, 1 mg/ml BSA, room temperature (30 C for viral ssDNA); SPR: 50 mM Tris, 150 mM NaCl, pH 7.5, 25 C; settings: protein: recombinant, chain copies: 2
TcaR [3] = target: T1, TcaR; assay: EMSA; similar to GC33; small complex; EMSA: 20 mM Tris-HCl pH 8.0, 150 mM KCl, 0.1 mM MgCl2, 0.05 mM EDTA, 12.5% glycerol, 0.1 mM DTT, 1 mg/ml BSA, room temperature (30 C for viral ssDNA); SPR: 50 mM Tris, 150 mM NaCl, pH 7.5, 25 C; settings: protein: recombinant; chain copies: 2
TcaR [4] = target: T1, TcaR; assay: EMSA; EMSA: 20 mM Tris-HCl pH 8.0, 150 mM KCl, 0.1 mM MgCl2, 0.05 mM EDTA, 12.5% glycerol, 0.1 mM DTT, 1 mg/ml BSA, room temperature (30 C for viral ssDNA); SPR: 50 mM Tris, 150 mM NaCl, pH 7.5, 25 C; settings: protein: recombinant, chain copies: 2
TcaR [5] = target: T1, TcaR; assay: SPR; shown as '-' in table; EMSA: 20 mM Tris-HCl pH 8.0, 150 mM KCl, 0.1 mM MgCl2, 0.05 mM EDTA, 12.5% glycerol, 0.1 mM DTT, 1 mg/ml BSA, room temperature (30 C for viral ssDNA); SPR: 50 mM Tris, 150 mM NaCl, pH 7.5, 25 C; settings: protein: recombinant; chain copies: 2
TcaR [6] = target: T1, TcaR; assay: EMSA; weaker than the single strands; EMSA: 20 mM Tris-HCl pH 8.0, 150 mM KCl, 0.1 mM MgCl2, 0.05 mM EDTA, 12.5% glycerol, 0.1 mM DTT, 1 mg/ml BSA, room temperature (30 C for viral ssDNA); SPR: 50 mM Tris, 150 mM NaCl, pH 7.5, 25 C; settings: protein: recombinant; chain copies: 2
TcaR quadruple mutant = TcaR quadruple mutant (Staphylococcus epidermidis, UniProt Q5HLN6 1-151, R71A;K73A;R93A;K95A); assay: EMSA; EMSA: 20 mM Tris-HCl pH 8.0, 150 mM KCl, 0.1 mM MgCl2, 0.05 mM EDTA, 12.5% glycerol, 0.1 mM DTT, 1 mg/ml BSA, room temperature (30 C for viral ssDNA); SPR: 50 mM Tris, 150 mM NaCl, pH 7.5, 25 C; settings: protein: recombinant, chain copies: 2
TcaR [7] = target: T1, TcaR; assay: SPR; EMSA: 20 mM Tris-HCl pH 8.0, 150 mM KCl, 0.1 mM MgCl2, 0.05 mM EDTA, 12.5% glycerol, 0.1 mM DTT, 1 mg/ml BSA, room temperature (30 C for viral ssDNA); SPR: 50 mM Tris, 150 mM NaCl, pH 7.5, 25 C; settings: protein: recombinant; chain copies: 2; label: 5' biotin (SPR)

B1: GC29 (ssDNA)
DNA: GCGTTGGCGTCGTGAGCGTTGGCGTCGTG
B1: binds (TcaR [1]).

B2: GC17 (ssDNA)
DNA: GAGCGTTGGCGTCGTGC
B2: no binding (TcaR [2]; label: 5' biotin (SPR only)).

B3: GC25 (ssDNA)
DNA: GTTGGCGTCGTGAGCGTTGGCGTCG
B3: binds (TcaR [3]).

B4: AT33 (ssDNA)
DNA: GATTATTTATTTTCAAATTATTTATTTTCAAGG
B4: binds (TcaR [4]; label: 5' biotin (SPR only)).

B5: AT17 (ssDNA)
DNA: GATTATTTATTTTCAAG
B5: no binding (TcaR [2]).

B6: Control dsDNA (dsDNA)
DNA 1: CCCCCGGGTTCGATGGGCTCAAGGCGGGCATGAAGTACCCCGTACTTCATGCCCGCCTTGAGCCCATCGAACCC
DNA 2: GGGTTCGATGGGCTCAAGGCGGGCATGAAGTACGGGGTACTTCATGCCCGCCTTGAGCCCATCGAACCCGGGGG
B6: no binding (TcaR [5]).

B7: IcaR DNA1 (dsDNA)
DNA 1: TATTGCAAATTGAAATACTTTCGATTAGCATAT
DNA 2: ATATGCTAATCGAAAGTATTTCAATTTGCAATA
B7: binds (TcaR [6]); no binding (TcaR quadruple mutant).

B8: IcaR DNA1A (ssDNA)
DNA: B7 DNA 2
B8: binds (TcaR [4]).

B9: IcaR DNA1S (ssDNA)
DNA: B7 DNA 1
B9: binds (TcaR [4]).

B10: GC33 (ssDNA)
DNA: GAGCGTTGGCGTCGTGAGCGTTGGCGTCGTGCG
B10: no binding (TcaR quadruple mutant; label: 5' biotin (SPR only)); binds (TcaR [4]; label: 5' biotin (SPR only)).

B11: GC8 (ssDNA)
DNA: GTTGGCGT
B11: no binding (TcaR [7]).
